From article PMC11751877
Blank lines part the entries; values can stand above or below the molecule they belong to.

Tests used:
[1] = biological target: ALK4-Fc (Fc-fused ALK4 ligand-binding domain); assay: SPR; Biacore 3000, 25°C; about 500 RU of ALK4-Fc captured on anti-human IgG (Fc) CM5 chip, Fc-free Cripto-1 injected at varying concentrations; HBS/EPS with 0.5 M NaCl and 0.1% BSA, pH 7.4; KD = kd/ka
[2] = biological target: full-length Cripto-1-Fc (NEC-Fc), soluble full-length variant lacking the GPI anchor, fused to human IgG1 Fc (human); assay: SPR; Biacore 3000, 25°C; about 500 RU of Cripto-1-Fc construct captured on anti-human IgG (Fc) CM5 chip, Nodal injected at several concentrations; HBS/EPS (0.01 M Hepes, 0.5 M NaCl, 3 mM EDTA, 0.005% Tween 20, pH 7.4) with 0.1% BSA; 50 μL/min; fitted to a 1:1 or bivalent analyte model, KD = kd/ka; apparent
Sequence of full-length Cripto-1-Fc (NEC-Fc), soluble full-length variant lacking the GPI anchor, fused to human IgG1 Fc (human) (P13385 31-163, stated change not applied): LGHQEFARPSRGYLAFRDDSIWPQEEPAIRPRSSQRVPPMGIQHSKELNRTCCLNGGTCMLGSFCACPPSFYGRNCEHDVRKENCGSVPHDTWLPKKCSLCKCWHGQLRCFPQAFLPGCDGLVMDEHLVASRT

[3] = biological target: Cripto-1 E-Fc (EGF-like domain fused to human IgG1 Fc) (human); assay: as above
[4] = biological target: Cripto-1 NE-Fc (N-terminal and EGF-like domains fused to human IgG1 Fc) (human); assay: as above
[5] = biological target: Cripto-1 EC-Fc (EGF-like and CFC domains fused to human IgG1 Fc) (human); assay: as above

- Kd [1]: 79.9 nM
- koff [1]: 0.00179 s⁻¹
- kon [1]: 22400 M⁻¹ s⁻¹
Molecule: Fc-free Cripto-1 (soluble Cripto-1 from which the Fc fragment had been proteolytically removed) (domain or fragment)

- Kd [2]: 10.1 nM
- koff [2]: 0.0116 s⁻¹
- kon [2]: 1.14e+06 M⁻¹ s⁻¹
- Kd [3]: 27.8 nM
- koff [3]: 0.00541 s⁻¹
- kon [3]: 195000 M⁻¹ s⁻¹
- Kd [4]: 10.4 nM
- koff [4]: 0.00104 s⁻¹
- kon [4]: 34100 M⁻¹ s⁻¹
- Kd [5]: 14.3 nM
- koff [5]: 0.000404 s⁻¹
- kon [5]: 28200 M⁻¹ s⁻¹
B1: Nodal (ligand)
chain: HHLPDRSQLCRKVKFQVDFNLIGWGSWIIYPKQYNAYRCEGECPNPVGEEFHPTNHAYIQSLLKRYQPHRVPSTCCAPVKTKPLSMLYVDNGRVLLDHHKDMIVEECGCL
